Drawing on the supplement of paper PMC10567573, this text covers protein stability index for 94 variants.

The labels stand for the following.
B1: BTBD1 (parent)
chain: IVGFGLYGSIHGPTDYQVNIQIIE
B2: HSP90AB1 (parent)
chain: TLRQKAEADKNDKAVKDLVVLLFE
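Also: lentivirally expressed fusions sorted by FACS into six bins by GFP to DsRed ratio, PSI derived from sequencing read proportions per bin multiplied by bin number.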

In the first series the parent is B1. Nature of the series: protein stability index of a GFP-peptide fusion (GPS, HEK-293T) (PSI 1-6); higher = more stable. The note with it: c terminus: a fixed tail appended.
Turning to IVGFGLGGSIHGPTDYQVNIQIIE [Y7G], the protein stability index was 2.06.

For IVGFGLWGSIHGPTDYQVNIQIIE [Y7W], the protein stability index came out at 3.5.

As for IVGFGLMGSIHGPTDYQVNIQIIE [Y7M], the protein stability index was 2.82.

For IVGFGLPGSIHGPTDYQVNIQIIE [Y7P], the protein stability index turned out to be 3.54.

Take IVGFGLVGSIHGPTDYQVNIQIIE [Y7V]: the protein stability index is 2.16.

Take IVGFGLNGSIHGPTDYQVNIQIIE [Y7N]: the protein stability index was determined as 2.96.

For IVGFGLHGSIHGPTDYQVNIQIIE [Y7H], the protein stability index came to 3.81.

As for IVGFGLSGSIHGPTDYQVNIQIIE [Y7S], the protein stability index came to 2.47.

Take IVGFGLFGSIHGPTDYQVNIQIIE [Y7F]: the protein stability index turned out to be 1.86.

For IVGFGLKGSIHGPTDYQVNIQIIE [Y7K], the protein stability index amounted to 3.4.

As to IVGFGLYGSIHGLTDYQVNIQIIE [P13L], the protein stability index came out at 2.25.

Turning to IVGFGLYGSIHGCTDYQVNIQIIE [P13C], the protein stability index was determined as 2.51.

On to IVGFGLYGSIHGFTDYQVNIQIIE [P13F], for which the protein stability index amounted to 2.72.

Regarding IVGFGLYGSIHGRTDYQVNIQIIE [P13R], the protein stability index was 2.35.

Consider IVGFGLYGSIHGVTDYQVNIQIIE [P13V], for which the protein stability index was 2.33.

Regarding IVGFGLYGSIHGWTDYQVNIQIIE [P13W], the protein stability index was determined as 2.76.

As to IVGFGLYGSIHGQTDYQVNIQIIE [P13Q], the protein stability index came out at 3.17.

Take IVGFGLYGSIHGITDYQVNIQIIE [P13I]: the protein stability index was 4.51.

As for IVGFGLYGSIHGATDYQVNIQIIE [P13A], the protein stability index was found to be 2.3.

For IVGFGLYGSIHGDTDYQVNIQIIE [P13D], the protein stability index is 1.76.

On to IVGFGLYGSIHGTTDYQVNIQIIE [P13T], for which the protein stability index was 2.81.

Consider IVGFGLYGSIHGMTDYQVNIQIIE [P13M], for which the protein stability index came out at 2.48.

Regarding IVGFGLYGSIHGGTDYQVNIQIIE [P13G], the protein stability index was 1.57.

In the case of IVGFSLYGSIHGPTDYQVNIQIIE [G5S], the protein stability index was 1.62.

IVGFALYGSIHGPTDYQVNIQIIE [G5A]: the protein stability index was 4.32.

For IVGFHLYGSIHGPTDYQVNIQIIE [G5H], the protein stability index is 2.33.

IVGFYLYGSIHGPTDYQVNIQIIE [G5Y]: the protein stability index came out at 3.17.

As to IVGFWLYGSIHGPTDYQVNIQIIE [G5W], the protein stability index worked out at 2.79.

Consider IVGFMLYGSIHGPTDYQVNIQIIE [G5M], for which the protein stability index is 2.92.

For IVGFCLYGSIHGPTDYQVNIQIIE [G5C], the protein stability index turned out to be 2.63.

Regarding IVGFTLYGSIHGPTDYQVNIQIIE [G5T], the protein stability index turned out to be 2.89.

Regarding IVGFKLYGSIHGPTDYQVNIQIIE [G5K], the protein stability index is 2.34.

Regarding IVGFRLYGSIHGPTDYQVNIQIIE [G5R], the protein stability index came out at 2.57.

For IVGFDLYGSIHGPTDYQVNIQIIE [G5D], the protein stability index worked out at 2.4.

Consider IVGFPLYGSIHGPTDYQVNIQIIE [G5P], for which the protein stability index worked out at 2.36.

In the case of IVGFNLYGSIHGPTDYQVNIQIIE [G5N], the protein stability index was 3.75.

As for IVGFQLYGSIHGPTDYQVNIQIIE [G5Q], the protein stability index was 3.76.

Regarding IVGFGNYGSIHGPTDYQVNIQIIE [L6N], the protein stability index came to 2.56.

In the case of IVGFGIYGSIHGPTDYQVNIQIIE [L6I], the protein stability index amounted to 2.75.

IVGFGMYGSIHGPTDYQVNIQIIE [L6M]: the protein stability index came to 1.94.

As to IVGFGFYGSIHGPTDYQVNIQIIE [L6F], the protein stability index worked out at 4.24.

Regarding IVGFGEYGSIHGPTDYQVNIQIIE [L6E], the protein stability index is 2.02.

Regarding IVGFGRYGSIHGPTDYQVNIQIIE [L6R], the protein stability index worked out at 2.67.

Turning to IVGFGGYGSIHGPTDYQVNIQIIE [L6G], the protein stability index stood at 4.42.

IVGFGPYGSIHGPTDYQVNIQIIE [L6P]: the protein stability index amounted to 3.27.

IVGFGQYGSIHGPTDYQVNIQIIE [L6Q]: the protein stability index was found to be 3.25.

IVGFGTYGSIHGPTDYQVNIQIIE [L6T]: the protein stability index turned out to be 2.16.

Consider IVGFGYYGSIHGPTDYQVNIQIIE [L6Y], for which the protein stability index worked out at 3.48.

For IVGFGWYGSIHGPTDYQVNIQIIE [L6W], the protein stability index is 1.76.

In the case of IVGFGVYGSIHGPTDYQVNIQIIE [L6V], the protein stability index was 3.11.

With IVGFGAYGSIHGPTDYQVNIQIIE [L6A], the protein stability index was determined as 3.31.

On to IVGFGHYGSIHGPTDYQVNIQIIE [L6H], for which the protein stability index amounted to 3.36.

As to IVGFGDYGSIHGPTDYQVNIQIIE [L6D], the protein stability index is 2.33.

For the variant IVGHGLYGSIHGPTDYQVNIQIIE [F4H], the protein stability index is 2.54.

Take IVGAGLYGSIHGPTDYQVNIQIIE [F4A]: the protein stability index was 1.97.

As for IVGGGLYGSIHGPTDYQVNIQIIE [F4G], the protein stability index amounted to 1.56.

Consider IVGLGLYGSIHGPTDYQVNIQIIE [F4L], for which the protein stability index was 3.57.

For IVGTGLYGSIHGPTDYQVNIQIIE [F4T], the protein stability index stood at 2.1.

Take IVGCGLYGSIHGPTDYQVNIQIIE [F4C]: the protein stability index was found to be 2.29.

Consider IVGMGLYGSIHGPTDYQVNIQIIE [F4M], for which the protein stability index was 2.47.

For the variant IVGQGLYGSIHGPTDYQVNIQIIE [F4Q], the protein stability index was determined as 1.9.

On to IVGWGLYGSIHGPTDYQVNIQIIE [F4W], for which the protein stability index is 1.8.

Regarding IVGIGLYGSIHGPTDYQVNIQIIE [F4I], the protein stability index amounted to 3.05.

For the variant IVGDGLYGSIHGPTDYQVNIQIIE [F4D], the protein stability index was 2.64.

As to IVGKGLYGSIHGPTDYQVNIQIIE [F4K], the protein stability index stood at 2.39.

For IVGPGLYGSIHGPTDYQVNIQIIE [F4P], the protein stability index was 1.87.

Consider IVGRGLYGSIHGPTDYQVNIQIIE [F4R], for which the protein stability index is 2.25.

Consider IVGSGLYGSIHGPTDYQVNIQIIE [F4S], for which the protein stability index is 2.07.

The variants in a further series derive from B2. The description is as above. The note with it: c terminus: a fixed tail appended.
Take TLRQKAEADKNDKAVKDLVVLLFL [E24L]: the protein stability index worked out at 2.54.

With TLRQKAEADKNDKAVKDLVVLLFF [E24F], the protein stability index was 1.83.

Consider TLRQKAEADKNDKAVKDLVVLLFH [E24H], for which the protein stability index came out at 2.79.

Regarding TLRQKAEADKNDKAVKDLVVLLFP [E24P], the protein stability index is 1.71.

Consider TLRQKAEADKNDKAVKDLVVLLFI [E24I], for which the protein stability index was 2.54.

For TLRQKAEADKNDKAVKDLVVLLFQ [E24Q], the protein stability index stood at 2.64.

For TLRQKAEADKNDKAVKDLVVLLFV [E24V], the protein stability index worked out at 2.01.

TLRQKAEADKNDKAVKDLVVLLFA [E24A]: the protein stability index turned out to be 1.89.

In the case of TLRQKAEADKNDKAVKDLVVLLFM [E24M], the protein stability index came out at 1.83.

TLRQKAEADKNDKAVKDLVVLLFK [E24K]: the protein stability index was 2.06.

Take TLRQKAEADKNDKAVKDLVVLLFD [E24D]: the protein stability index came out at 2.83.

Consider TLRQKAEADKNDKAVKDLVVLLFY [E24Y], for which the protein stability index was determined as 2.21.

Take TLRQKAEADKNDKAVKDLVVLLFC [E24C]: the protein stability index was determined as 1.43.

With TLRQKAEADKNDKAVKDLVVLLFW [E24W], the protein stability index is 1.97.

Regarding TLRQKAEADKNDKAVKDLVVLLFT [E24T], the protein stability index was 2.14.

As for TLRQKAEADKNDKAVKDLVVLLFN [E24N], the protein stability index turned out to be 2.44.

Regarding TLRQKAEADKNDKAVKDLVVLLFG [E24G], the protein stability index was determined as 2.26.

As for TLRQKAEADKNDKAVKDLVVLLFS [E24S], the protein stability index came out at 2.19.

With TLRQKAEADKNDKAVKDLVVLLFR [E24R], the protein stability index was determined as 2.04.

Consider TLRQKAEADKNDKAVKDLVVLLYE [F23Y], for which the protein stability index is 3.47.

As to TLRQKAEADKNDKAVKDLVVLLPE [F23P], the protein stability index was 5.02.

For TLRQKAEADKNDKAVKDLVVLLWE [F23W], the protein stability index was 2.56.

With TLRQKAEADKNDKAVKDLVVLLRE [F23R], the protein stability index worked out at 3.79.

Regarding TLRQKAEADKNDKAVKDLVVLLSE [F23S], the protein stability index worked out at 3.95.

With TLRQKAEADKNDKAVKDLVVLLQE [F23Q], the protein stability index turned out to be 4.55.

With TLRQKAEADKNDKAVKDLVVLLTE [F23T], the protein stability index was found to be 4.76.
